The values below come from IntAct's records for PubMed 17070805.

B1: RING1 and YY1-binding protein (Homo sapiens), Q8N488 (parent)
chain: MTMGDKKSPTRPKRQAKPAADEGFWDCSVCTFRNSAEAFKCSICDVRKGTSTRKPRINSQLVAQQVAQQYATPPPPKKEKKEKVEKQDKEKPEKDKEISPSVTKKNTNKKTKPKSDILKDPPSEANSIQSANATTKTSETNHTSRPRLKNVDRSTAQQLAVTVGNVTVIITDFKEKTRSSSTSSSTVTSSAGSEQQNQSSSGSESTDKGSSRSSTPKGDMSAVNDESF

In the first assay the parent is B1. The conditions noted are these: with ubc_human UBC.
Regarding MTMGDKKSPTRPKRQAKPAADEGFWDCSVCAARNSAEAFKCSICDVRKGTSTRKPRINSQLVAQQVAQQYATPPPPKKEKKEKVEKQDKEKPEKDKEISPSVTKKNTNKKTKPKSDILKDPPSEANSIQSANATTKTSETNHTSRPRLKNVDRSTAQQLAVTVGNVTVIITDFKEKTRSSSTSSSTVTSSAGSEQQNQSSSGSESTDKGSSRSSTPKGDMSAVNDESF [T31A;F32A], the “effect of a mutation on the interaction” value is “disrupting interaction”.

The variants in a further assay derive from B1. The following applies: with ubc_human UBC. This is another data set of the same source.
As for MTMGDKKSPTRPKRQAKPAADEGFWDCSVCAARNSAEAFKCSICDVRKGTSTRKPRINSQLVAQQVAQQYATPPPPKKEKKEKVEKQDKEKPEKDKEISPSVTKKNTNKKTKPKSDILKDPPSEANSIQSANATTKTSETNHTSRPRLKNVDRSTAQQLAVTVGNVTVIITDFKEKTRSSSTSSSTVTSSAGSEQQNQSSSGSESTDKGSSRSSTPKGDMSAVNDESF [T31A;F32A], the “effect of a mutation on the interaction” value is “disrupting interaction”.

The next assay covers variants of B1. The conditions noted are these: with RING1, Q06587-2.
RING1, Q06587-2, sequence (Q06587 30-406): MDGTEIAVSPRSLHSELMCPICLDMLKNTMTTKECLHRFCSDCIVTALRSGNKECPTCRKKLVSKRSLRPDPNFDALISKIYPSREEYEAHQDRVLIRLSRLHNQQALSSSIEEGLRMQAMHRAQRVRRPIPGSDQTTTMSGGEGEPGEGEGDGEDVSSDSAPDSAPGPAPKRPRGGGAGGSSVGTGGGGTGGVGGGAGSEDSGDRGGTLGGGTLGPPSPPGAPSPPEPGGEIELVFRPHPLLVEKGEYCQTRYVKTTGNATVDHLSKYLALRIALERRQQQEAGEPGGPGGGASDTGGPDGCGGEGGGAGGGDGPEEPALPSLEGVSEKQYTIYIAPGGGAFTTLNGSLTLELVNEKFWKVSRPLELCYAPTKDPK
Consider MTMGDKKSPTRPKRQAKPAADEGFWDCSVCAARNSAEAFKCSICDVRKGTSTRKPRINSQLVAQQVAQQYATPPPPKKEKKEKVEKQDKEKPEKDKEISPSVTKKNTNKKTKPKSDILKDPPSEANSIQSANATTKTSETNHTSRPRLKNVDRSTAQQLAVTVGNVTVIITDFKEKTRSSSTSSSTVTSSAGSEQQNQSSSGSESTDKGSSRSSTPKGDMSAVNDESF [T31A;F32A], for which the “effect of a mutation on the interaction” value is reported as “disrupting interaction”.
